This is an account of results in doi:10.1101/2025.05.06.651509 (bioRxiv, 2025).

The series deals with the molecule itself. Put plainly: MST.

B1: recombinant TSC22D4 (natural protein, human, UniProt Q9Y3Q8 1-395, looked up)
chain: MSGGKKKSSFQITSVTTDYEGPGSPGASDPPTPQPPTGPPPRLPNGEPSPDPGGKGTPRNGSPPPGAPSSRFRVVKLPHGLGEPYRRGRWTCVDVYERDLEPHSFGGLLEGIRGASGGAGGRSLDSRLELASLGLGAPTPPSGLSQGPTSWLRPPPTSPGPQARSFTGGLGQLVVPSKAKAEKPPLSASSPQQRPPEPETGESAGTSRAATPLPSLRVEAEAGGSGARTPPLSRRKAVDMRLRMELGAPEEMGQVPPLDSRPSSPALYFTHDASLVHKSPDPFGAVAAQKFSLAHSMLAISGHLDSDDDSGSGSLVGIDNKIEQAMDLVKSHLMFAVREEVEVLKEQIRELAERNAALEQENGLLRALASPEQLAQLPSSGVPRLGPPAPNGPSV
modifications: RED-tris-NTA dye on the His tag (labelled copy only)
Consider B1, for which the binding result is “binds”.

B2: TSC22D4 I322W (natural protein, human, UniProt Q9Y3Q8 1-395, looked up)
chain: MSGGKKKSSFQITSVTTDYEGPGSPGASDPPTPQPPTGPPPRLPNGEPSPDPGGKGTPRNGSPPPGAPSSRFRVVKLPHGLGEPYRRGRWTCVDVYERDLEPHSFGGLLEGIRGASGGAGGRSLDSRLELASLGLGAPTPPSGLSQGPTSWLRPPPTSPGPQARSFTGGLGQLVVPSKAKAEKPPLSASSPQQRPPEPETGESAGTSRAATPLPSLRVEAEAGGSGARTPPLSRRKAVDMRLRMELGAPEEMGQVPPLDSRPSSPALYFTHDASLVHKSPDPFGAVAAQKFSLAHSMLAISGHLDSDDDSGSGSLVGIDNKWEQAMDLVKSHLMFAVREEVEVLKEQIRELAERNAALEQENGLLRALASPEQLAQLPSSGVPRLGPPAPNGPSV
Take B2: the binding result is given as “binds”.
